Results reported in patent publication US20250019652A1, “PRODUCTION METHOD FOR SHEET-LIKE RETINAL TISSUE” (RIKEN, priority 2021, published 2025).

B1: FGF4: fibroblast growth factor, FGF signaling pathway agonist (protein, UniProt P08620 31-206, looked up)
Fibroblast growth factor 4: APTAPNGTLEAELERRWESLVALSLARLPVAAQPKEAAVQSGAGDYLLGIKRLRRLYCNVGIGFHLQALPDGRIGGAHADTRDSLLELSPVERGVVSIFGVASRFFVAMSSKGKLYGSPFFTDECTFKEILLPNNYNAYESYKYPGMFIALSKNGKTKKGNRVSPTMKVTHFLPRL
B2: FGF8: fibroblast growth factor, FGF signaling pathway agonist (protein, UniProt P55075 23-233, looked up)
Fibroblast growth factor 8: QEGPGRGPALGRELASLFRAGREPQGVSQQHVREQSLVTDQLSRRLIRTYQLYSRTSGKHVQVLANKRINAMAEDGDPFAKLIVETDTFGSRVRVRGAETGLYICMNKKGKLIAKSNGKGKDCVFTEIVLENNYTALQNAKYEGWYMAFTRKGRPRKGSKTRQHQREVHFMKRLPRGHHTTEQSLRFEFLNYPPFTRSLRGSQRTWAPEPR
B3: BMP4: exogenous human recombinant BMP4, BMP signaling pathway agonist (protein, UniProt P12644 293-408, looked up)
Bone morphogenetic protein 4: SPKHHSQRARKKNKNCRRHSLYVDFSDVGWNDWIVAPPGYQAFYCHGDCPFPLADHLNSTNHAIVQTLVNSVNSSIPKACCVPTELSAISMLYLDEYDKVVLKNYQEMVVEGCGCR

Key:
Type in all cases: cell-based, human
[1] = system: Rx::Venus-sorted cells (KhES-1-derived NR, Day 25); assay: Search of factor that maintains property of retina at preparation into sheet again (Example 18); design: expression intensity of Rx::Venus, concentration dependency: dose or concentration left out as unconfirmed; conditions: for expression intensity of Rx::Venus: compared with PBS control, 10 days after seeding
Procedure: (§1) The aggregates (NR) of Day 25 from initiation of the suspension culture prepared in Example 1 were washed with PBS, and a neuronal cell dispersion solution (manufactured by FUJIFILM Wako Pure Chemical Corp.) was added. After incubation at 37° C., they were dispersed into single cells by pipetting, and sorting was carried out with Rx::Venus as an index using Cell sorter ARIAII (Becton, Dickinson and Company).
3 days after seeding, the medium was similarly replaced so as to maintain the concentrations of the low-molecular compounds or the proteins described in Tables 1 and 2. […] 10 days after seeding, fixation was performed in 4% PFA, and the evaluation of the cells after sorting was conducted with Rx::Venus as an index under a fluorescence microscope (BZ-X810 manufactured by Keyence Corp.).

[2] = system: sorted or unsorted dispersed NR cells (KhES-1 Rx::Venus); assay: Aggregate reforming by addition of FGF8 and retinal differentiation, microscopy and FACS (Example 19)
Procedure: as §1, with “24” for “25”, “Company). The cells after sorting were seeded at 2.0 to 5.0×10^4 cells per well to a low adhesive V plate. As controls, a group that was not supplemented with FGF8 (FGF8−) and a group that was not sorted (unsorted) were also established.” for “Company).”
Medium replacement was carried out once every 3 to 4 days. FGF8 was also added at the time of medium replacement. […] RPE cells were partially observed in the sorted FGF8− group.
Further, the aggregates of Culture Day 54 for aggregate reforming (Day 30 after reseeding) were washed with PBS and dispersed into single cells using a neuronal cell dispersion solution (manufactured by FUJIFILM Wako Pure Chemical Corp.). Then, formaldehyde fixation was performed using Fixation buffer (Becton, Dickinson and Company). Thereafter, after washing with Perm/Wash buffer (Becton, Dickinson and Company), staining was performed with anti-CHX10-Alexa Fluor 647 conjugate antibody (Santa Cruz Biotechnology), anti-Sox2-BV421 antibody (BioLegend, Inc.), anti-Ki67-Alexa Fluor 647 conjugate antibody (Becton, Dickinson and Company), and anti-CRX-Alexa Fluor 647 conjugate antibody (Santa Cruz Biotechnology). After washing of the antibodies with Perm/Wash buffer (Becton, Dickinson and Company), measurement was performed using FACSCantoII (BD Biosciences), and analysis was conducted using FlowJo. As a control, neural retinal tissue having the same number of differentiation days that was not reorganized was also established.

[3] = system: CD39-sorted cells of Islet-1 KO KhES-1-derived aggregates (NR); assay: Islet-1 KO hESC-retina sheet prepared by sorting with CD39 and addition of FGF8 (Example 26); conditions: 50 ng/mL FGF8; Day 73
Procedure: For aggregates differentiated with 300 nM SAG at the start of suspension culture (at the start of differentiation, dd0), the aggregates (NR) of Day 25 from initiation of the suspension culture were dispersed into single cells and stained at 37° C. for 15 minutes using anti-CD39-APC conjugate antibody (Miltenyi Biotec). Then, sorting was carried out with CD39-APC as an index using Cell sorter ARIAII (Becton, Dickinson and Company). The cells after sorting were seeded at 8.0×10^5 cells per well into 12-well Transwell coated with collagen gel. […] As a control, a group that was not supplemented with FGF8 (FGF8−) was also established.
Medium replacement was carried out once every 3 to 4 days. FGF8 was also added at the time of medium replacement.

[4] = system: Rx::Venus-sorted NR cells on Transwell (KhES-1-derived); assay: Effect of FGF8 at preparation into sheet again, microscopy and FACS (Example 20)
Procedure: as §1, with “24” for “25”, “Company). […] As a control, a group that was not supplemented with FGF8 (FGF8−) was also established.” for “Company).”
Medium replacement was carried out once every 3 to 4 days. FGF8 was also added at the time of medium replacement. Sheets after a lapse of differentiation for 63 days and 40 days after reseeding were observed under a fluorescence stereo microscope (FIGS. 60 and 61). For FACS analysis, the aggregates of Differentiation Day 64 and Day 41 after reseeding were washed with PBS and dispersed into single cells using a neuronal cell dispersion solution (manufactured by FUJIFILM Wako Pure Chemical Corp.). Then, formaldehyde fixation was performed using Fixation buffer (Becton, Dickinson and Company).
Thereafter, after fixation using Fixation buffer (Becton, Dickinson and Company) and washing with Perm/Wash buffer (Becton, Dickinson and Company), staining was performed with anti-CHX10-Alexa Fluor 647 conjugate antibody (Santa Cruz Biotechnology), anti-Sox2-BV421 conjugate antibody (BioLegend, Inc.), anti-Ki67 antibody (Becton, Dickinson and Company), and anti-CRX-Alexa Fluor 647 conjugate antibody (Santa Cruz Biotechnology). After washing of the antibodies with Perm/Wash buffer (Becton, Dickinson and Company), measurement was performed using FACSCantoII (BD Biosciences), and analysis was conducted using FlowJo. As a control, neural retinal tissue having the same number of differentiation days that was not reorganized was also established (FIG. 62).

[5] = system: KhES-1 Rx::Venus aggregates; assay: Differentiation with or without BMP4: retinal tissue versus brain organoid (Example 23); conditions: group supplemented with BMP4
Procedure: Human ES cells (KhES-1 strain (Non Patent Literature 3)) genetically engineered so as to have Rx::Venus reporter gene were cultured under feeder-free conditions in accordance with the method described in “Scientific Reports 4, 3594 (2014)”. As a feeder-free medium, StemFit medium (trade name: AK03N, manufactured by Ajinomoto Co., Inc.) was used, and as a scaffold in place of feeder cells, Laminin511-E8 (trade name, manufactured by Nippi, Inc.) was used. 300 nM SAG was added at the start of suspension culture (at the start of differentiation), and brain organoid was prepared on Day 3 from initiation of the suspension culture without adding BMP4. As a control, a group supplemented with BMP4 was established. Fluorescence microscope observation was performed as to the brain organoid of Day 26 from initiation of the suspension culture prepared in this way (FIG. 70). […] Further, these aggregates were fixed in 4% PFA. Sections were prepared and stained with DAPI and anti-FoxG1 antibody (Takara Bio Inc.), and observation was performed under a fluorescence microscope (BZ-X810 manufactured by Keyence Corp.). […] On the other hand, in the group that was not supplemented with BMP4, FoxG1 positive was confirmed, and it was confirmed that brain organoid was differentiated (FIG. 71).

[6] = sorted group supplemented with FGF8
[7] = versus neural retinal tissue not reorganized

| Molecule | expression intensity of Rx::Venus [1] | percentage of Chx10-positive and Sox2-positive neural retinal progenitor cells [2, 6] | percentage of Crx-positive photoreceptor progenitor cells [2, 6] | RPE cells or Rx::Venus-negative masses ([2]; sorted, FGF8+, Day 10 after reseeding) | Rx::Venus positive rate (FACS) ([2]; unsorted group supplemented with FGF8, Day 30 after reseeding) | Rx::Venus-negative cell masses or RPE cells ([2]; unsorted, FGF8+, Day 10 after reseeding) | distribution of Crx::Venus cell populations in sheet [3] | expression intensity of Rx::Venus, concentration dependency ([1]; FGF8) | Rx::Venus positive rate (FACS) ([4]; group supplemented with FGF8, Day 41 after reseeding) [%] | black RPE in sheet ([4]; sheets supplemented with FGF8) | distribution of Rx::Venus-positive cells in sheet ([4]; sorted then supplemented with FGF8, 40 days after reseeding) | percentage of Chx10-positive and Sox2-positive neural retinal progenitor cells or Crx-positive photoreceptor progenitor cells [4, 7] | percentage of Rx::Venus-positive and Ki67-positive proliferative retinal cells [4, 7] | FoxG1 staining [5] | differentiated tissue (Rx::Venus) ([5]; Day 26) |
| --- | --- | --- | --- | --- | --- | --- | --- | --- | --- | --- | --- | --- | --- | --- | --- |
| B1 | high expression intensity of Rx::Venus |  |  |  |  |  |  |  |  |  |  |  |  |  |  |
| B2 | high expression intensity of Rx::Venus | high | tended to be low | RPE cells or Rx::Venus-negative masses were not observed | the Rx::Venus positive rate tended to be high | these cell masses were observed to decrease | uniformly present | the highest expression intensity of Rx::Venus | ≥ 95 | hardly observed | Rx::Venus-positive cells were uniformly present in the whole wells | equivalent as compared with neural retinal tissue | tended to be large as compared with neural retinal tissue |  |  |
| B3 |  |  |  |  |  |  |  |  |  |  |  |  |  | FoxG1 was negative | Rx::Venus-positive retinal tissue was observed to be differentiated |
